For 26 sequences, protein stability index results are on record in the supplement of paper PMC9732359.

± gives the uncertainty stated by the source.

This series is described as follows: protein stability index of a GFP-peptide fusion (yeast GPS) (PSI 1-4); higher = more stable; sorted into four equal gates, so the index is relative within each strain. The gist of the method: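 Yeast carrying a pooled library were grown to mid-log phase in leucine-free medium. Each library plasmid expresses Cherry and has a tiled 17-residue yeast protein peptide fused downstream of GFP. Cells were sorted into four equal gates by GFP/Cherry ratio, and plasmids from each gate were PCR-amplified, Illumina-sequenced and assigned to strains by barcode. Summing, across gates, the read frequency times the gate number gave each peptide's protein stability index.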

As to KKSEEKLREKVNDVELA [MTW1], the protein stability index is, setting by setting: (doa10∆) 3.08 ± 0.13; (pdr5∆) 3.03 ± 0.13; (san1∆) 3.05 ± 0.14; (ubr1∆) 3.06 ± 0.21.
Regarding RQLTSMEFSNLYKEFFN [NUT1], the protein stability index reads like this: (doa10∆) 2.48 ± 0.079; (pdr5∆) 2.59 ± 0.068; (san1∆) 2.85 ± 0.089; (ubr1∆) 2.25 ± 0.067.
As for IFQAKRNSNPENTVGLI [RPN10], the protein stability index is 3.17 ± 0.1 (doa10∆), 3.27 ± 0.087 (pdr5∆), 2.92 ± 0.074 (san1∆) and 3.21 ± 0.11 (ubr1∆).
As to GAHLLEFQPSGNVTELY [PRE5], the protein stability index is, setting by setting: (doa10∆) 2.54 ± 0.12; (pdr5∆) 2.99 ± 0.076; (san1∆) 2.92 ± 0.12; (ubr1∆) 3.02 ± 0.11.
On the same counts, the results for GGQGNTDDYFEELRDLY [FAS1] are 3.22 ± 0.088, 3.51 ± 0.073, 3.3 ± 0.057 and 3.28 ± 0.059.
On the same counts, the results for LARHLPAELDLRGSLLS [RPC82] are 3.04 ± 0.12, 3.16 ± 0.11, 3.01 ± 0.085 and 3.15 ± 0.072.
The corresponding values for STAAAPIAAPKKPRKPR [PGD1] are 2.72 ± 0.086, 3.11 ± 0.076, 2.75 ± 0.057 and 3.15 ± 0.039.
Consider QNTVPNVLNQINQIFSP [GAL11], for which the protein stability index was found to be 2.63 ± 0.039 (doa10∆), 2.5 ± 0.033 (pdr5∆), 2.4 ± 0.038 (san1∆) and 2.44 ± 0.032 (ubr1∆).
On the same counts, the results for QLNLNNLTPANILNMSM [PGD1] are 3.04 ± 0.1, 3.19 ± 0.07, 2.75 ± 0.067 and 3.02 ± 0.045.
As for PEYEKAMQYVCGDSIIC [SMC1], the protein stability index runs as follows: (doa10∆) 1.7 ± 0.1; (pdr5∆) 2.27 ± 0.17; (san1∆) 1.88 ± 0.14; (ubr1∆) 1.89 ± 0.1.
Turning to VEKRIGKIVSQRGKWNL [RGR1], the protein stability index is, setting by setting: (doa10∆) 2.88 ± 0.065; (pdr5∆) 2.96 ± 0.049; (san1∆) 3.16 ± 0.06; (ubr1∆) 2.71 ± 0.036.
On the same counts, the results for CSKAMGDLASLVLLNGR [RPP1] are 2.84 ± 0.061, 2.9 ± 0.05, 2.62 ± 0.058 and 2.73 ± 0.037.
TNAAFPFHDPEARLFNI [ECM29]: the protein stability index (doa10∆) was 3.04 ± 0.1, the protein stability index (pdr5∆) came out at 2.87 ± 0.12, the protein stability index (san1∆) came to 2.42 ± 0.11 and the protein stability index (ubr1∆) was 2.38 ± 0.072.
On the same counts, the results for SKEKANFLETIASTEKP [SIR4] are 2.26 ± 0.069, 2.28 ± 0.055, 2.04 ± 0.1 and 2.64 ± 0.058.
With YKKSTENESTNYQYKIQ [MED7], the protein stability index is 2.58 ± 0.046 (doa10∆), 2.48 ± 0.045 (pdr5∆), 2.41 ± 0.055 (san1∆) and 2.59 ± 0.035 (ubr1∆).
Turning to KGSRQCRVCSSHTGLIR [RPS29A], the protein stability index is, setting by setting: (doa10∆) 2.73 ± 0.06; (pdr5∆) 2.93 ± 0.049; (san1∆) 2.62 ± 0.055; (ubr1∆) 2.9 ± 0.043.
On the same counts, the results for KGGSLYGLGLIYAGFGR [RPN2] are 2.15 ± 0.095, 2.28 ± 0.086, 2.35 ± 0.063 and 2 ± 0.062.
As for DSRTTTGAYIANRVTDK [PRE3], the protein stability index reads like this: (doa10∆) 2.99 ± 0.13; (pdr5∆) 3.29 ± 0.11; (san1∆) 2.89 ± 0.11; (ubr1∆) 3.08 ± 0.082.
In the case of AAEQQSKAFKESSDFGA [SRP54], the protein stability index by setting is: (doa10∆) 2.8 ± 0.057; (pdr5∆) 2.3 ± 0.049; (san1∆) 2.58 ± 0.082; (ubr1∆) 2.34 ± 0.057.
The corresponding values for IYRTTRQDGSYTYHSTN [ARP9] are 2.61 ± 0.08, 2.74 ± 0.083, 2.27 ± 0.093 and 2.53 ± 0.058.
On the same counts, the results for QPTGLLKGLNGFPSAPQ [YMR153W/NUP53] are 3.39 ± 0.14, 3.3 ± 0.12, 3.25 ± 0.11 and 3.18 ± 0.1.
On the same counts, the results for KLYKKIAKFERSEEEVT [YIL149C/MLP2] are 3.25 ± 0.1, 3.19 ± 0.078, 3.17 ± 0.064 and 3.3 ± 0.078.
On to KPPTQKTDTKVSFRTHN [SRP21], for which the protein stability index runs as follows: (doa10∆) 2.52 ± 0.078; (pdr5∆) 2.82 ± 0.072; (san1∆) 2.57 ± 0.07; (ubr1∆) 2.7 ± 0.065.
The corresponding values for NRAMEYDALLSINVHSN [RET1] are 2.58 ± 0.061, 2.41 ± 0.064, 2.29 ± 0.07 and 2.68 ± 0.045.
The corresponding values for HSKRELDSGDDQPQSSE [BRR2] are 3.33 ± 0.073, 3.38 ± 0.069, 3.18 ± 0.057 and 3.19 ± 0.051.
Sequence SDVLLFQLPTTCVSMAP [RGR1] registered a protein stability index (doa10∆) of 2.25 ± 0.047, a protein stability index (pdr5∆) of 1.83 ± 0.036, a protein stability index (san1∆) of 1.87 ± 0.05 and a protein stability index (ubr1∆) of 1.77 ± 0.028.
